Source: patent US20200223910A1 (STERLING IP, published 2020)
Numbering of substitutions follows the chain as printed. Names may count otherwise. One block for each binder: values may come before it.

Legend:
[1] = target: T1, mouse TNC rCd4-His-FBG (rat; mouse, UniProt P05540 209-391; Q80YX1 1883-2110, limits assumed); assay: SPR BIAcore T200, 37 C, IgG4 captured on anti-human Fc, rCd4-His-FBG injected, 1:1 fit
T1 construct: domain: domains 3 and 4;domain: FBG; Biotinylated in the capture ELISA; also called Mu TNC; mTNC; not shown: 6His tag
T1 sequence (chain (part 1 of 2), looked up): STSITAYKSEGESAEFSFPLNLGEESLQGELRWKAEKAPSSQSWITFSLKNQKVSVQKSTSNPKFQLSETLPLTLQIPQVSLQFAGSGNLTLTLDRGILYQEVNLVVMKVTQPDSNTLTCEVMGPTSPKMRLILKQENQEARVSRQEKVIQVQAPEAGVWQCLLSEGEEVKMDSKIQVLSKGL
T1 sequence (chain (part 2 of 2), looked up): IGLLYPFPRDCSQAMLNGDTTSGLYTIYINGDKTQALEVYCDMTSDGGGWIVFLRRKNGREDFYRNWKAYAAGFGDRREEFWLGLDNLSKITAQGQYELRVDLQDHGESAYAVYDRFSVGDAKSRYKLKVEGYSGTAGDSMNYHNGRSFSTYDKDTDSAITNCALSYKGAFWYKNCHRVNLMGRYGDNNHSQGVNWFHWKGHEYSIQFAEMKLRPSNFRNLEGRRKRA
Experimental: (§1) For the kinetic assay ˜1,500-1,900 response units (RU) of anti-human Fc IgG (GE, BR-1008-39) was immobilised in all flow-cells (FC1-4) on a Series S CM5 sensor chip (BR-1005-30) using EDC/NHS cross-linking chemistry according to the amine coupling kit protocol (GE, BR-1000-50). […] Antibody capture levels ranged typically from 70 RU (for TNR interactions) to 90 RU (for TNC interactions).
(§2) A 1:1 dilution series of antigen in HBS-P+ (30 nM of human and mouse TNC rCd4-His-FBG and 480 nM of human TNR rCd4-His-FBG) was injected with a flow-path via the reference flow cell (FC1 and FC3, respectively) and the antibody capture flow cell (FC2 and FC4, respectively) with a flow rate of 30 μl/min. The association and dissociation phases were measured over a 3.5 and 30 min time period, respectively, for human and mouse TNC rCd4-His-FBG, and 2 and 8 min time period for human TNR rCd4-His-FBG. For interaction analysis with human and mouse TNC rCD4-His-FBG regeneration of free capture antibody surfaces after each antigen injection was done by injection of 3 M MgCl 2 for 60 s and for each sample injection a fresh NSCT antibody was captured. Carry over of antigen was prohibited by an extra needle wash step with 50% DMSO before every injection. Runs were performed at the more physiologically relevant temperature of 37° C.
(§3) Kinetic parameters were determined by reference cell subtraction and fitting the sensorgram experimental data to a 1:1 interaction model using the BIAcore T200 Evaluation software version 2.0.

[2] = target: T2, human TNR rCd4-His-FBG (rat; human, UniProt P05540 209-391; Q92752 1128-1358, limits assumed); assay: as above
T2 construct: domain: domains 3 and 4;domain: FBG; also called Hu TNR; hTNR; not shown: 6His tag
T2 sequence (chain (part 1 of 2), looked up): T1 sequence (chain (part 1 of 2), looked up)
T2 sequence (chain (part 2 of 2), looked up): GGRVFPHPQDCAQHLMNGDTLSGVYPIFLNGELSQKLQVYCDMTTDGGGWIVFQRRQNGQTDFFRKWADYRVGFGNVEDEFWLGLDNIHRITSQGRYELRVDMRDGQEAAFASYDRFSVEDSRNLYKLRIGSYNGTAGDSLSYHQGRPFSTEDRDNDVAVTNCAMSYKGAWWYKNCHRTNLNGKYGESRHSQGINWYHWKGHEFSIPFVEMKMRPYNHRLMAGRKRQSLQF
Experimental: as §1, §2, §3

[3] = target: T3, human TNC rCd4-His-FBG (rat; human, UniProt P05540 209-391; P24821 1974-2201, limits assumed); assay: as above
T3 construct: domain: domains 3 and 4;domain: FBG; C-terminal FBG fusion made in HEK293F cells; biotinylated in the ELISA and HTRF assays; also called Hu TNC; hTNC; not shown: 6His tag
T3 sequence (chain (part 1 of 2), looked up): T1 sequence (chain (part 1 of 2), looked up)
T3 sequence (chain (part 2 of 2), looked up): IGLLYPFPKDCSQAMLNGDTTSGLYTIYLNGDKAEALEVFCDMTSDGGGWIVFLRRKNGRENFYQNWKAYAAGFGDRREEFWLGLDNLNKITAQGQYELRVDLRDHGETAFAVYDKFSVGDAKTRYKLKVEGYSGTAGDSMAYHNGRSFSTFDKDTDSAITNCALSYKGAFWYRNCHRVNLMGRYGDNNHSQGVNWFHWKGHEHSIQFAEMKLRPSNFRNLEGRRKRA
Experimental: as §1, §2, §3

[4] = target: T1, mouse TNC rCd4-His-FBG; assay: SPR BIAcore T200, 37 C, IgG4 captured on anti-human Fc, rCd4-His-FBG injected, 1:1 fit; relative to theoretical Rmax
Experimental: as §1, §2, §3

[5] = target: T2, human TNR rCd4-His-FBG; assay: as above
Experimental: as §1, §2, §3

[6] = target: T3, human TNC rCd4-His-FBG; assay: as above
Experimental: as §1, §2, §3

[7] = target: T1, mouse TNC rCd4-His-FBG; assay: anti-FLAG capture DELFIA ELISA, scFv supernatant, biotinylated mouse rCd4-His-FBG
Experimental: E. coli clones harbouring scFv pSANG10 expression plasmids were induced in 96-well plates with auto-induction media as described previously (Schofield et al, 2007). E. coli supernatants were harvested for ELISA assays. ELISA used the DELFIA (dissociation enhanced lanthanide fluorescent immunoassay) system with Europium-labelled anti-FLAG antibody (Sigma, Aldrich, UK). Black immunosorb plates (Nunc) were coated overnight with anti-FLAG M2 antibody (Sigma, F3165, 5 μg/ml in PBS, 50 μl per well), in wells blocked by the addition of 2% milk powder, PBS (PBS-M, 300 μl per well). Plates were washed three times with PBS-T (PBS, 0.1% Tween-20) and three times with PBS followed by the addition of a 1:2 dilution of 96-well auto-induction culture supernatants containing expressed scFv in PBS-M (50 μl per well). The plates were incubated for 1 h, washed as above and biotinylated mouse or human rCd4-His-FBG ([…] in PBS-M, 50 μl) added to each well. Plates were incubated for a further 1 h, washed and Strepravidin-Eu added (Perkin Elmer, 1 μg/ml, PBS-M, 50 μl), incubated for 30 min, washed and DELFIA enhancement solution added (50 μl) and plates read on a Perkin Elmer Fusion plate reader (excitation=320 nm, emission 620 nm).

[8] = target: T3, human TNC rCd4-His-FBG; assay: HTRF competition, scFv supernatant; competitor d2-labelled B12 IgG
Experimental: IgG antibodies were labelled using the d2 labelling kit (CisBio, 62D2DPEA) as directed by the manufacturer. Streptavidin europium cryptate (CisBio, 610SAKLA, Lot#25C) was used at a final concentration of 1.8 ng active moiety (SA) per 20 μl reaction as recommended by the manufacturer. Biotinylated rCd4-His-FBG was prepared using EZ-link Sulfo-NHS-LC-Biotin reagent (Thermo Scientific, 21327) the extent of biotinylation was quantified using biotinylation fluorescence quantitation kit (Thermo Scientific, 46610). Where appropriate, supernatants containing scFv (prepared as described above for ELISA assays) were added to the 384-well assay plate at a final dilution of 1/20 (i.e. ⅕ dilution in assay buffer followed by addition of 5 μl diluted sample to the 20 μl FRET assay). The concentrations of d2-labelled B12 IgG used for screening were 1.25 nM. Unless otherwise stated, biotinylated rCd4-His-FBG (biotin:protein ratio=1.8:1) was present at either 2.2 nM (in assays using the 2A5 IgG antibody) or 1 nM (in experiments using B12 IgG). Samples were incubated for approximately 1 h at room temperature and the FRET signal was determined using a BMG Pherastar instrument: excitation=320 nm; emission=620 nm and 665 nm; integration start time=60 μs; integration time=500 μs; 100 flashes per well. For competition assays containing culture supernatant, biotinylated rCd4-His-FBG antigen was pre-incubated with streptavidin europium cryptate for 45 min prior to addition of reagents to the assay plate. All FRET signals are presented as ΔR, where R =(E665/E620×104) and ΔR =(Rsample-Rbackground fluorescence).
Culture supernatants containing unlabelled scFv clones from affinity selected mutant libraries were tested for inhibition of the interaction between FBG and the fluorophore-labelled parental IgG antibody. […] The parental clones, expressed as scFvs in parallel with the affinity matured clones, were used as benchmarks.

Kd [1]: 670 pM | koff [1]: 0.0042 s⁻¹ | kon [1]: 6.28e+06 M⁻¹ s⁻¹ | Kd [2]: 53100 pM | koff [2]: 0.058 s⁻¹ | kon [2]: 1.11e+06 M⁻¹ s⁻¹ | Kd [3]: 443 pM | koff [3]: 0.0041 s⁻¹ | kon [3]: 9.35e+06 M⁻¹ s⁻¹ | SA, surface activity [4]: 304% | SA, surface activity [5]: 233% | SA, surface activity [6]: 297%
B1: IgG4 165_13_C3* (antibody, V domains shown)
VH: QVQLVESGGGLVQPGRSLRLSCAASGFTFDDYAMHWVRQAPGKGLEWVSGISGSGGSTYYADSVKGRFTISRDNAKNSLYLQMNSLRAEDTALYYCAKSYQSDEDAFDIWGQGTMVTVSS
VL: DIQMTQSPSSLSASVGDRVTITCRASQYIQGFLNWYQQKPGKAPKLLIYDASNLETGVPSRFSGSGSGTDFTLTISSLQPEDFATYYCQQSYSTPQTFGQGTKVDIKR
notes: Hinge-modified IgG4 (S241P); neither is tied by name to C3* as tested; also called NSCT-141

fold improvement for mouse FBG binding against parent B12 [7]: ≥ 4 fold
B2: 165_13_D1 scFv (scFv, V domains shown)
VH: B1 VH with S99G, Y100T, Q101R, S102G, D103E, E104G, A106T
VL: B1 VL with S9A, S12P, A13T, S14P
notes: scFv in E. coli supernatant

fold improvement for mouse FBG binding against parent B12 [7]: ≥ 4 fold
B3: 165_13_B1 scFv (scFv, V domains shown)
VH: B1 VH with S99V, Y100M, Q101S, D103M
VL: B1 VL with S9A, S12P, A13T, S14P
notes: scFv in E. coli supernatant (pSANG10, FLAG-tagged)

fold improvement for mouse FBG binding against parent B12 [7]: ≥ 4 fold
B4: 165_13_B6 scFv (scFv, V domains shown)
VH: B1 VH with S99G, Y100Q, Q101K, S102G, D103E, E104G, A106T
VL: B1 VL with S9A, S12P, A13T, S14P
notes: scFv in E. coli supernatant

% inhibition of HTRF signal [8]: ≥ 91% | fold improvement for mouse FBG binding against parent B12 [7]: ≥ 4 fold
B5: 180_11_F5 scFv (scFv, V domains shown)
VH: B1 VH with S99V, Y100M, Q101R, S102T, D103G, E104L, A106T
VL: B1 VL with S9A, S12P, A13T, S14P
notes: scFv in E. coli supernatant

% inhibition of HTRF signal [8]: ≥ 91% | fold improvement for mouse FBG binding against parent B12 [7]: ≥ 4 fold
B6: 165_13_B3 scFv (scFv, V domains shown)
VH: B1 VH with S99A, Y100L, Q101A, S102R, D103G, E104H, A106T
VL: B1 VL with S9A, S12P, A13T, S14P
notes: scFv in E. coli supernatant

% inhibition of HTRF signal [8]: ≥ 91% | fold improvement for mouse FBG binding against parent B12 [7]: ≥ 4 fold
B7: 165_13_C3 scFv (scFv, V domains shown)
VH: B1 VH
VL: B1 VL with S9A, S12P, A13T, S14P
notes: scFv in E. coli supernatant

% inhibition of HTRF signal [8]: ≥ 91% | fold improvement for mouse FBG binding against parent B12 [7]: ≥ 4 fold
B8: 165_13_A4 scFv (scFv, V domains shown)
VH: B1 VH with S99D, Y100K, Q101Y, S102P, D103V, E104L, A106T
VL: B1 VL with S9A, S12P, A13T, S14P
notes: scFv in E. coli supernatant

% inhibition of HTRF signal [8]: ≥ 91% | fold improvement for mouse FBG binding against parent B12 [7]: ≥ 4 fold
B9: 165_13_D4 scFv (scFv, V domains shown)
VH: B1 VH with S99G, Y100T, Q101V, S102G, D103E, E104G, A106T
VL: B1 VL with S9A, S12P, A13T, S14P
notes: scFv in E. coli supernatant

% inhibition of HTRF signal [8]: ≥ 91% | fold improvement for mouse FBG binding against parent B12 [7]: ≥ 4 fold
B10: 165_13_E1 scFv (scFv, V domains shown)
VH: B1 VH with S99D, Y100I, Q101S, S102A, D103V, E104M, A106V, F107P, D108Q, I109T
VL: B1 VL with S9A, S12P, A13T, S14P
notes: scFv in E. coli supernatant
